Laboratory results published in PMC3905668.

Experiments:
[1] = target: N-terminally KGN-tagged Vpr (KGN-Vpr) (UniProt P12520); assay: bimolecular fluorescence complementation (BiFC), flow cytometry on cells; conditions: 293T cells, 48 hours post-transfection; parent: est. 100; read off a plot
[2] = target: C-terminally KGC-tagged Gag (Gag-KGC); assay: as above; conditions: 293T cells, 48 hours post-transfection; parent: est. 100; read off a plot

C-terminally KGC-tagged Gag (Gag-KGC) S487A
percent of parent [1]: 35%

N-terminally KGN-tagged Vpr (KGN-Vpr) (from UniProt P12520) Q44E
percent of parent [2]: 30%
